The values that follow come from paper PMC2253824.

The target of this test is TTC4, endogenous in Hela cells (human (endogenous in Hela)) (UniProt O95801). The test is described as follows: co-IP; SDS-PAGE of the anti-TTC4 immune pellet stained with colloidal coomassie blue; data not shown.
TTC4, endogenous in Hela cells (human (endogenous in Hela)), sequence (O95801 whole entry): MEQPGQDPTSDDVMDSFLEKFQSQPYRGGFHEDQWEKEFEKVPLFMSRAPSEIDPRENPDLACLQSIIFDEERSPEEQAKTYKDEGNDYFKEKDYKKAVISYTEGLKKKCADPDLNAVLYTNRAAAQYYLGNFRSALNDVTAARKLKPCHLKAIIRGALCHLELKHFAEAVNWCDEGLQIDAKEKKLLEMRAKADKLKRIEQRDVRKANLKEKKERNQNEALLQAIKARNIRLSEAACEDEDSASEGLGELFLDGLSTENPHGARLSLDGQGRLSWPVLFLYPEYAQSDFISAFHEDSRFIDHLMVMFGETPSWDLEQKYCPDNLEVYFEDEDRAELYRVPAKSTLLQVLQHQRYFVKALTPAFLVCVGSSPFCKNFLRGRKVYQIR

HSP70, endogenous in Hela cells, sequence (P11142 whole entry): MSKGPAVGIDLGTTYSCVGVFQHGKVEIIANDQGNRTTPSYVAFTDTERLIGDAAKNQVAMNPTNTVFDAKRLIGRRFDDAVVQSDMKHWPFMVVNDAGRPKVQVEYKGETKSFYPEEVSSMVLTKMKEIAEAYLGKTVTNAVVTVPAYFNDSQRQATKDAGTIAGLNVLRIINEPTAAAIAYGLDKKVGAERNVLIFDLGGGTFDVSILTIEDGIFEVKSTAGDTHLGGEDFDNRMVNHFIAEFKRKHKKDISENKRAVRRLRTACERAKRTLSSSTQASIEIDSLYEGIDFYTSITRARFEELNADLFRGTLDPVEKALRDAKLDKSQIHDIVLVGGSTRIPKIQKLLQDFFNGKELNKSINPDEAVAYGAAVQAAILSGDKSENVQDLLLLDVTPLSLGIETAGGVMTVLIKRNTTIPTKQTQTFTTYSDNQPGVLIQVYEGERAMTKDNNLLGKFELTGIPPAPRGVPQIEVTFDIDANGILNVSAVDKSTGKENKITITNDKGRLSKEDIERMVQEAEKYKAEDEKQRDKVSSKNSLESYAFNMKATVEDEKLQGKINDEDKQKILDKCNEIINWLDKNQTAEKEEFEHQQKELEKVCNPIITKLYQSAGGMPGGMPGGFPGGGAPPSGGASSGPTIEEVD

In turn, “HSP70, endogenous in Hela cells (from UniProt P11142 1-646) (natural protein)” showed a level in the immune pellet (colloidal coomassie) of 20%.
